Assay [1] deals with T1, Human EphA2 (Ecto) (Human, UniProt P29317 24-537).
T1 construct: extracellular domain
Put plainly: FP direct binding. On the procedure:
(§1) The gain used for analysis was determined for each tracer at the end of the 60 minutes where there was no protein in the well. Data was analysed using Systat Sigmaplot version 12.0. mP values were fit to a user defined quadratic equation to generate a Kd value: f=ymin+(ymax−ymin)/Lig*((x+Lig+Kd)/2-sqrt((((x+Lig+Kd)/2)\hat{ }2)−(Lig*x))). “Lig” was a defined value of the concentration of tracer used.

Assay [2] deals with T2, Mouse EphA2 (Ecto) (Mouse, UniProt Q03145 26-538).
T2 construct: extracellular domain; not shown: Fc fusion or C-terminal polyHis
Put plainly: FP direct binding. On the procedure:
as §1

In a further assay the target is T3, rat EphB1 (Rat, UniProt P09759 18-540).
T3 construct: extracellular domain; also called EphB1 (Ecto), Rat
T3 sequence (looked up): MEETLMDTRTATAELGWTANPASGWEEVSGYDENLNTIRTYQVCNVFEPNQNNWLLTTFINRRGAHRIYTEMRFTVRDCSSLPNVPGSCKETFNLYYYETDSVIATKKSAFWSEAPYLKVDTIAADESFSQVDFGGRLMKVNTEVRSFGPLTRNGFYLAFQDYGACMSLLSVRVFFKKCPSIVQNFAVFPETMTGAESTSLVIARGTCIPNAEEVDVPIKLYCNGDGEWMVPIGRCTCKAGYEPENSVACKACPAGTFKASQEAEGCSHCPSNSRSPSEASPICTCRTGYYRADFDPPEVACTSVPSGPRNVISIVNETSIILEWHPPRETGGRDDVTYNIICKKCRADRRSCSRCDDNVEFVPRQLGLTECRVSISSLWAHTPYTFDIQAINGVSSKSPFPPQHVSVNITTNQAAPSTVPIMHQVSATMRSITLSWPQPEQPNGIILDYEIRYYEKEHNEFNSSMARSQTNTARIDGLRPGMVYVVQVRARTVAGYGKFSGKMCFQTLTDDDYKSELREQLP
Put plainly: FP direct binding, selectivity. On the procedure:
as §1

A further assay concerns the target dog EphA2 (Dog, UniProt A0A286R219 28-206). Put plainly: FP direct binding, selectivity. How it is done: as §1
Another assay deals with T4, mouse EphA2 (Mouse, UniProt Q03145 26-538).
T4 construct: extracellular domain; C-terminal polyHis; also called EphA2 (Ecto), Mouse
Put plainly: FP direct binding, selectivity. How it is done: as §1

Another assay deals with rat EphA2 (Rat, UniProt D3ZBN3 27-205). Put plainly: FP direct binding, selectivity. On the procedure: as §1
Assay [3] deals with T1, Human EphA2 (Ecto). Put plainly: FP direct binding. The source holds these as a separate data set.
The target in assay [4] is T2, Mouse EphA2 (Ecto). Put plainly: FP direct binding. This is another data set of the same source.
Another assay deals with rat EphA3 (Rat) (UniProt O08680). Put plainly: FP direct binding, selectivity.
The next assay addresses dog EphA2 (Dog). Put plainly: FP direct binding, selectivity.
In another assay the target is human EphA4 (Human) (UniProt P54764). Put plainly: FP direct binding, selectivity.
Assay [5] addresses rat & mouse EphA4 (rat & mouse) (UniProt D3ZZK3). Put plainly: FP direct binding, selectivity.
A further assay deals with T5, Human EphA1 (Human, UniProt P21709 26-547).
T5 construct: extracellular domain; also called EphA1 (Ecto), Human
T5 sequence (looked up): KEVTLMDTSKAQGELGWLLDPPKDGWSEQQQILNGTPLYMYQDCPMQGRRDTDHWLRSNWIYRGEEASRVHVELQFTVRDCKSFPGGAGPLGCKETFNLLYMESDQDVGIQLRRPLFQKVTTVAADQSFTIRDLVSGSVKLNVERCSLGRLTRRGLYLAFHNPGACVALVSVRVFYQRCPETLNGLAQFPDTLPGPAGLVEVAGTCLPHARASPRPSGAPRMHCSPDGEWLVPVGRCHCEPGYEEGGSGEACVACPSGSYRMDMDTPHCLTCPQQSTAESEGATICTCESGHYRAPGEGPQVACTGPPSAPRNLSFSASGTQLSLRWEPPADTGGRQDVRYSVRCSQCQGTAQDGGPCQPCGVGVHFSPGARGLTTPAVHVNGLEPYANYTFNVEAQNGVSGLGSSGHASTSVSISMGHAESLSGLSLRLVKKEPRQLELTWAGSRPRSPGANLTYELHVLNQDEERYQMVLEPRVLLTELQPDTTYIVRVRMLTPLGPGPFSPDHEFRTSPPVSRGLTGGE
Put plainly: FP direct binding, selectivity. On the procedure:
as §1

Assay [6] deals with Human & mouse EphA3 (Human & mouse) (UniProt P29320). Put plainly: FP direct binding, selectivity.
The target of assay [7] is T1, Human EphA2 (Ecto). Put plainly: FP competition; competitor Compound 66.
Assay [8] concerns the target T1, Human EphA2 (Ecto). Put plainly: FP competition; competitor Compound 12. How it is done: (§2) Peptides without a fluorescent tag were tested in competition with a peptide with a fluorescent tag and a known Kd (Table 2). Peptides were diluted to an appropriate concentration in assay buffer as described in the direct binding assay with a maximum of 5% DMSO, then serially diluted 1 in 2. Five μL of diluted peptide was added to the plate followed by 10 μL of human or mouse EphA2 (Table 1) at a fixed concentration which was dependent on the fluorescent peptide used (Table 2), then 10 μL fluorescent peptide added. Measurements were conducted as for the direct binding assay, however the gain was determined prior to the first measurement.

A further assay addresses T6, Human EphA2 (Human, UniProt P29317 24-537).
T6 construct: extracellular domain; also called EphA2 (Ecto), Human
Put plainly: FP competition; competitor: fluorescent Compound 12. On the procedure:
as §2

The target of assay [9] is T1, Human EphA2 (Ecto). Put plainly: FP competition; competitor Compound 1. How it is done:
as §2

Like-named read-outs stand apart in the source and are kept apart here. Numbered stars: 1 amine (or outer) side, 2 acyl side, 3 side chain; on linkers, the order of the positions; unused ones are H or OH. Bridge positions count the residues as written; N and C are the ends. Square brackets hold non-standard residues; d marks the D form. Ends that are not written are not given here. DM1 = thiol-containing maytansine derivative (cytotoxic agent); AlexaFluor488 = AlexaFluor488 fluorescent dye label; disulphide linker of formula (B) = not defined here; K(FI) = lysine carrying a fluorescein label (FI); 1Nal = N[C@@H](Cc1cccc2ccccc12)C(=O)O; TBMB = c1c(C[*:1])cc(C[*:3])cc1C[*:2]; Gly(cPent) = N[C@H](C(=O)O)C1CCCC1; hArg = N=C(N)NCCCC[C@H](N)C(=O)O; Tle = CC(C)(C)[C@H](N)C(=O)O; AF488 = AlexaFluor488 label; Aib = CC(C)(N)C(=O)O; βAla = NCCC(=O)O; Sar = CNCC(=O)O

T1 sequence (P29317 24-537): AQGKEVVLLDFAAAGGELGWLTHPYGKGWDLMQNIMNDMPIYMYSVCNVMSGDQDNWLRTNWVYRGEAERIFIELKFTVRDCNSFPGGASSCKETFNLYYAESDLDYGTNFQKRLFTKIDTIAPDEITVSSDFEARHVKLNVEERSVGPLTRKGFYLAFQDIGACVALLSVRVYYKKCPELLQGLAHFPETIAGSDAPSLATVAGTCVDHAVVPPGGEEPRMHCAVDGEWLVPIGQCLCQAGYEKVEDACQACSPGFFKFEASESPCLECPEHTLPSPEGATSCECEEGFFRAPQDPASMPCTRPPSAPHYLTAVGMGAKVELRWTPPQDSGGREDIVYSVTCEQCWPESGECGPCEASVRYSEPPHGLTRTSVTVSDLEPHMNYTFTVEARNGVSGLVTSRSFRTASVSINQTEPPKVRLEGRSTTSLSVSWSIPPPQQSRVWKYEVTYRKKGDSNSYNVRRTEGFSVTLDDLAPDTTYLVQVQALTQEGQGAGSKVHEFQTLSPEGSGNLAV
Chain of rat EphA3 (Rat) (O08680 21-541): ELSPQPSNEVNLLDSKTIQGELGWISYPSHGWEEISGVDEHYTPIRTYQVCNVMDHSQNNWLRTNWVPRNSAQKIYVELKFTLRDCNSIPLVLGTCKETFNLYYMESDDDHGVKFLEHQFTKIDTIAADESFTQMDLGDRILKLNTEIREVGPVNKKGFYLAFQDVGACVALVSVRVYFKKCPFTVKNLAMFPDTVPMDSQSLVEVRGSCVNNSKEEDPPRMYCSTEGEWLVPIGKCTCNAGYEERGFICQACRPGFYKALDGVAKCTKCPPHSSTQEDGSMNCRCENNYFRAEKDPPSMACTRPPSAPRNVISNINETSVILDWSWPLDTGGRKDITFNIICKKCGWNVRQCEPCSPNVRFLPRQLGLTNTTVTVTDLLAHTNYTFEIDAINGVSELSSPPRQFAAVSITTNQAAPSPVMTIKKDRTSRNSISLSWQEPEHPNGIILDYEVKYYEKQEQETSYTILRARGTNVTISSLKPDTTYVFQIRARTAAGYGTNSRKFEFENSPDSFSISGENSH
T4 sequence (Q03145 26-538): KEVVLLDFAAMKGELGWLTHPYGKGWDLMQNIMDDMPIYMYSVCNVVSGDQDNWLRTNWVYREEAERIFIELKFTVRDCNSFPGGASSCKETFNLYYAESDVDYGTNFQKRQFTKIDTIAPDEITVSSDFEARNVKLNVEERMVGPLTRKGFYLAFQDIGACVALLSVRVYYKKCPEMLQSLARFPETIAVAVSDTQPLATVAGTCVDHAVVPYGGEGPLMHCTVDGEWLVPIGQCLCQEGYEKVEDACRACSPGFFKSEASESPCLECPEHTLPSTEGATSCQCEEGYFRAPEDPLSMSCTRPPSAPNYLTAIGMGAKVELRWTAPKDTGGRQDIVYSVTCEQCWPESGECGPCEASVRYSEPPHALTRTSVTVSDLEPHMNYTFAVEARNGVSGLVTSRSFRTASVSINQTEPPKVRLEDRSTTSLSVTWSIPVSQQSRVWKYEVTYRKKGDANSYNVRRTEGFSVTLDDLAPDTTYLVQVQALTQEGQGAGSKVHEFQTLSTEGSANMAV
T2 sequence (Q03145 26-538): as above
Chain of human EphA4 (Human) (P54764 20-547): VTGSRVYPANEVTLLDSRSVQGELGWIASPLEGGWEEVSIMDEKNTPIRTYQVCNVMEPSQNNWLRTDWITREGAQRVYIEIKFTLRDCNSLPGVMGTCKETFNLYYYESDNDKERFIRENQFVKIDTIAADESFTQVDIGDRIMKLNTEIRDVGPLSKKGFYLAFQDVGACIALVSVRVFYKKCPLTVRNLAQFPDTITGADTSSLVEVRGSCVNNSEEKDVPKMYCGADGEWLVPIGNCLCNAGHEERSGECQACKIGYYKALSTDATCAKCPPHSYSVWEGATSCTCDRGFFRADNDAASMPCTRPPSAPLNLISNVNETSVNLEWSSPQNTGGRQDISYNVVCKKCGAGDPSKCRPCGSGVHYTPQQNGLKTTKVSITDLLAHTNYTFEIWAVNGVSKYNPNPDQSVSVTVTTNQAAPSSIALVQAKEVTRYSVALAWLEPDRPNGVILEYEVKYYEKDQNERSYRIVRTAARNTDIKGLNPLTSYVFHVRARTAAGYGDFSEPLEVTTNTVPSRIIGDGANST
Chain of Human & mouse EphA3 (Human & mouse) (P29320 21-541): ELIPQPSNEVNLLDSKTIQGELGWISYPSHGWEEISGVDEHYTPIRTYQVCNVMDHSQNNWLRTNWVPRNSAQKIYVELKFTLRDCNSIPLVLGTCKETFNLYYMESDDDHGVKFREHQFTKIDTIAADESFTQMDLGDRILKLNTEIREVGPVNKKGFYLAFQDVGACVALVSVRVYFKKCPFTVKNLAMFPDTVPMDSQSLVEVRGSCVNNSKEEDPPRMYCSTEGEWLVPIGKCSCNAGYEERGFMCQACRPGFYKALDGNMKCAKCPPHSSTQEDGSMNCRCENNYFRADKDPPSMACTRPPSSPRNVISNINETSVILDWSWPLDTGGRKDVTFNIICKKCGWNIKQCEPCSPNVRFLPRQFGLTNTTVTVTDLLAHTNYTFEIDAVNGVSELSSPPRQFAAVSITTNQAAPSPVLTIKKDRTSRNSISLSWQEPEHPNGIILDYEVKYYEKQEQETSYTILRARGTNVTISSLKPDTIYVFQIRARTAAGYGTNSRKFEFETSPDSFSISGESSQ
T6 sequence (P29317 24-537): as the sequence (P29317 24-537) above

B1: Compound 139 (peptide)
peptide: {AF488-βAla}-[Sar][Sar][Sar][Sar][Sar][Sar][Sar][Sar][Sar][Sar]H[dD]VPCPWGPFWCPVNRPGCA
modifications: linker 15-22-29 via TBMB
Turning to B1, the figures for the Kd in the assay with Human EphA2 (Ecto) [1] and in the assay with Mouse EphA2 (Ecto) [2] were 0.31 nM and 0.8 nM, respectively.

B2: Compound 18 (peptide)
peptide: ADVTCPWGPFWCPVNRPGCA
modifications: N-terminal Fl-G-Sar5 before the entry; three Cys cyclised on TBMB
notes: bicyclic peptide, fluorescent
With B2, the Kd (commonly a measure of binding affinity in units of concentration) is 1.42 µM with rat EphB1, 3.57 nM in the assay with dog EphA2, 4.02 nM in the assay with mouse EphA2 and 1.72 nM with rat EphA2.

B3: Compound 141 (peptide)
peptide: {AF488-βAla}-[Sar][Sar][Sar][Sar][Sar][Sar][Sar][Sar][Sar][Sar]H[dD]VPC[Aib][1Nal]G[Aib]F[1Nal]CP[Tle]NR[Aib][dD]C
modifications: linker 15-22-29 via TBMB
On to B3, for which the Kd with Human EphA2 (Ecto) [3] is 2.65 nM; in the assay with Mouse EphA2 (Ecto) [4], 6.5 nM; in the assay with mouse EphA2 it was 6.5 nM; with rat EphA2 it was 2.33 nM; with rat EphA3 (Rat) it was 137 nM; with dog EphA2 (Dog), 13.3 nM. Further, the Kd in the assay with human EphA4 (Human) amounted to 238 µM; in assay [5], 1.89 µM.

B4: Compound 145 (peptide)
peptide: {AF488-βAla}-[Sar][Sar][Sar][Sar][Sar][Sar][Sar][Sar][Sar][Sar]H[dD]VPCP[1Nal]G[Aib]F[1Nal]CP[Tle]NR[Aib][dD]C
modifications: linker 15-22-29 via TBMB
As for B4, the Kd in the assay with Human EphA2 (Ecto) [3] turned out to be 2.17 nM; with Mouse EphA2 (Ecto) [4], 3.8 nM; with rat EphB1, 5.42 µM; with Human EphA1, 7.26 µM; in the assay with mouse EphA2, 3.8 nM; with rat EphA2, 1 nM. In addition, the Kd in the assay with rat EphA3 (Rat) was found to be 297 nM; with dog EphA2 (Dog) it was 4.99 nM; with human EphA4 (Human) it was 1.5 µM; in [6], 129 nM; in assay [5], 2.54 µM.

B5: Compound 64 (peptide)
peptide: ACTTGSIWCALQFEPCA
modifications: linker 2-9-16 via TBMB
As to B5, the Ki (usually a measure of affinity in units of concentration, obtained from inhibition or displacement) in the assay with Human EphA2 (Ecto) [7] was 63.4 nM; with Human EphA2 (Ecto) [8], 410 nM.

B6: BDC-5 (peptide)
peptide: {DM1-disulphide linker of formula (B)-βAla}-[Sar][Sar][Sar][Sar][Sar][Sar][Sar][Sar][Sar][Sar]ACPWAPFWCAVNRPGC
modifications: linker 12-19-26 via TBMB; reading uncertain
notes: DM1 conjugate; also called Bicyclic Peptide Drug Conjugate BDC-5; Compound 303, Formula (B)
In the case of B6, the inhibition constant (Ki) in the assay with Human EphA2 was greater than 1000 nM.

B7: Compound 68 (peptide)
peptide: {AlexaFluor488-βAla}-[Sar][Sar][Sar][Sar][Sar][Sar][Sar][Sar][Sar][Sar]ACPWGPFWCPVNRPGC
modifications: linker 12-19-26 via TBMB
notes: bicyclic peptide, fluorescent
B7: the Kd turned out to be 31.9 nM with dog EphA2 and 15.9 nM in the assay with rat EphA2.

B8: Compound 139 (peptide)
peptide: {AF488-βAla}-[Sar][Sar][Sar][Sar][Sar][Sar][Sar][Sar][Sar][Sar]H[dD]VPCPWGPFWCPVNRPGCA
modifications: linker 15-22-29 via TBMB
notes: bicyclic peptide, fluorescent
Regarding B8, the Kd with dog EphA2 turned out to be 2.17 nM; with mouse EphA2, 0.8 nM; with rat EphA2, 0.36 nM.

B9: Compound 32 (peptide)
peptide: ACRNIPTMCPFGPVWCA
modifications: linker 2-9-16 via TBMB
As for B9, the Ki in the assay with Human EphA2 (Ecto) [9] stood at 83.4 nM.

B10: Compound 63 (peptide)
peptide: ACVPQGIWCALQFEPCA
modifications: linker 2-9-16 via TBMB
Consider B10, for which the inhibition constant (Ki) was found to be 144 nM with Human EphA2 (Ecto) [9], 82.5 nM in the assay with Human EphA2 (Ecto) [7] and 92.2 nM in the assay with Human EphA2 (Ecto) [8].

B11: Compound 6 (peptide)
peptide: ACMNDWLCQLGWTCA[Sar][Sar][Sar][Sar][Sar][Sar]-{K(FI)}
modifications: linker 2-8-14 via TBMB
Consider B11, for which binding with Human EphA2 (Ecto) [1] was put at a Kd of 4.25 nM.

B12: Compound 147 (peptide)
peptide: {AF488-βAla}-[Sar][Sar][Sar][Sar][Sar][Sar][Sar][Sar][Sar][Sar]H[dD][Gly(cPent)]PCP[1Nal]G[Aib]F[1Nal]CP[Tle]N[hArg]P[dD]C
modifications: linker 15-22-29 via TBMB
Take B12: the Kd with Human EphA2 (Ecto) [3] worked out at 1.07 nM; with Mouse EphA2 (Ecto) [4], 3.44 nM; in the assay with Human EphA1, 1.22 µM; in the assay with mouse EphA2, 3.44 nM; with rat EphA2, 1.15 nM; with rat EphA3 (Rat), 221 nM. For the same molecule, the dissociation constant Kd came out at 3.58 nM in the assay with dog EphA2 (Dog), 7440 µM in the assay with human EphA4 (Human), 82.5 nM in [6] and 1000 µM in assay [5].

B13: Compound 41 (peptide)
peptide: ACPWGPAWCPVHGKTCA
modifications: linker 2-9-16 via TBMB
Take B13: the inhibition constant (Ki) in the assay with Human EphA2 (Ecto) [9] worked out at 263 nM.

B14: Compound 45 (peptide)
peptide: ACPWGPAWCPVNRPGCAGAAA
modifications: linker 2-9-16 via TBMB
Turning to B14, the values for the inhibition constant (Ki) in the assay with Human EphA2 (Ecto) [7] and with Human EphA2 (Ecto) [8] were 117 nM and 99.2 nM, respectively.

(Values after patent publication US20200338203A1 (Bicycle, published 2020).)
